In US5804412:

Legend:
[1] = target: endogenous EGFR of CV-1 cells (monkey (endogenous EGFR of CV-1 monkey kidney cells))
[2] = target: endogenous EGFR of CV-1 cells (monkey (endogenous EGFR of CV-1 monkey kidney cells)); experiment: Scatchard analysis of 125I-EGF binding to SNX1 transfected CV-1 cells
[3] = target: endogenous EGFR of CV-1 cells (monkey (endogenous EGFR of CV-1 monkey kidney cells)); experiment: Scatchard analysis of 125I-EGF binding to vector transfected control CV-1 cells
[4] = target: EGFR core tyrosine kinase domain (residues 663-958) fused to LexA (human) (UniProt P00533); experiment: yeast two hybrid, LexA-EGFR bait and SNX1-B42 prey, galactose against dextrose control

human SNX1 (sorting nexin 1), full length
EGFR half life (35S-methionine pulse chase, immunoprecipitation) [1]: 2 h

125I-EGF (ligand)
Kd [2]: 1.34 nM | Kd [3]: 0.73 nM

carboxy terminal 58 amino acids of SNX1 fused to the B42 acid patch transcriptional activation domain
induction of β-gal activity in response to galactose induction [4]: 400 x
